B1: chimeric HIM34×CD3 bispecific antibody (chHIM34 BsAb) (bispecific antibody)
light: DIVMTQSPSSLSASLGGKVTITCKASQDINKYIAWYQHKPGKGPRLLIHYTSTLQPGIPSRFSGSGSGRDYSFSISNLEPEDIATYYCLQYDNLLTFGAGTKLELKRTVAAPSVFIFPPSDEQLKSGTASVVCLLNNFYPREAKVQWKVDNALQSGNSQESVTEQDSKDSTYSLSSTLTLSKADYEKHKVYACEVTHQGLSSPVTKSFNRGECTSGGGGSGGGGSGGGGSQVQLVQSGGGVVQPGRSLRLSCKASGYTFTRYTMHWVRQAPGKCLEWIGYINPSRGYTNYNQKFKDRFTISRDNSKNTAFLQMDSLRPEDTGVYFCARYYDDHYSLDYWGQGTPVTVSSGGGGSGGGGSGGGGSGGGGSGGGGSGGGGSDIQMTQSPSSLSASVGDRVTITCSASSSVSYMNWYQQTPGKAPKRWIYDTSKLASGVPSRFSGSGSGTDYTFTISSLQPEDIATYYCQQWSSNPFTFGCGTKLQITR
heavy: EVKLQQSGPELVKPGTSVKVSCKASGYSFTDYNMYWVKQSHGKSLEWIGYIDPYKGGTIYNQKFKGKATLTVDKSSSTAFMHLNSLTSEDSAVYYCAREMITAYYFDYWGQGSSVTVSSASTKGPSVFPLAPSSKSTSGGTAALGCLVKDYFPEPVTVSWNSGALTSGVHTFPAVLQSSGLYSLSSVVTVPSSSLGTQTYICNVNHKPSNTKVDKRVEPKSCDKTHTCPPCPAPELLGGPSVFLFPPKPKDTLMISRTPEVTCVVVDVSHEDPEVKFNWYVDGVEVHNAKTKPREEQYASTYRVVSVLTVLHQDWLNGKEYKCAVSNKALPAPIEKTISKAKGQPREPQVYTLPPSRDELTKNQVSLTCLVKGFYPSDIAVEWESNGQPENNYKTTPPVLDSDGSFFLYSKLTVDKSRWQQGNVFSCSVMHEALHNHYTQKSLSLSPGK
notes: IgG-scFv format (tetravalent); also called chHIM34×CD3 BsAb; chimeric CD33-BsAb
B2: humanized HIM34 BsAb L4H4 (bispecific antibody, human IgG1, V domains shown)
VH: QVQLVQSGAEVKKPGASVKVSCKASGYSFTDYNMYWVRQAPGQGLEWIGYIDPYKGGTNYAQKFQGRATLTVDKSSSTAYMELSRLRSDDTAVYYCAREMITAYYFDYWGQGSSVTVSS
VL: DIQMTQSPSSLSASVGDRVTITCKASQDINKYIAWYQHKPGKAPKLLIYYASNLQPGVPSRFSGSGSGRDFTFTISSLQPEDIATYYCLQYDNLLTFGAGTKLELK
notes: Tested as a humanized HIM34×CD3 BsAb in the IgG-scFv format (human IgG1 N297A/K322A, humanized OKT3 scFv on the light chain)
B3: humanized HIM34 BsAb L3H4 (bispecific antibody, human IgG1, V domains shown)
VH: QVQLVQSGAEVKKPGASVKVSCKASGYSFTDYNMYWVRQAPGQGLEWIGYIDPYKGGTNYAQKFQGRATLTVDKSSSTAYMELSRLRSDDTAVYYCAREMITAYYFDYWGQGSSVTVSS
VL: DIQMTQSPSSLSASVGDRVTITCKASQDINKYIAWYQHKPGKAPKLLIHYTSTLETGVPSRFSGSGSGTDFTFTISSLQPEDIATYYCLQYDNLLTFGAGTKLELK
notes: Tested as a humanized HIM34×CD3 BsAb in the IgG-scFv format: human IgG1 with N297A/K322A, humanized OKT3 scFv on the light chain C-terminus via (G4S)3
B4: humanized HIM34 BsAb L4H1 (bispecific antibody, human IgG1, V domains shown)
VH: QVQLQQSGAEVVKPGASVKVSCKASGYSFTDYNMYWVRQAPGQGLEWIGYIDPYKGGTNYAQKFQGRVTMTVDKSSSTAYMELSRLRSDDTAVYYCAREMITAYYFDYWGQGSSVTVSS
VL: DIQMTQSPSSLSASVGDRVTITCKASQDINKYIAWYQHKPGKAPKLLIYYASNLQPGVPSRFSGSGSGRDFTFTISSLQPEDIATYYCLQYDNLLTFGAGTKLELK
notes: as for B2
B5: humanized HIM34 BsAb L4H7 (bispecific antibody, human IgG1, V domains shown)
VH: QVQLQQSGAEVKKPGASVKVSCKASGYSFTDYNMYWVRQAPGQGLEWIGYIDPYKGGTIYNQKFKGRATLTRDTSISTAYMELSRLRSDDTAVYYCAREMITAYYFDYWGQGSSVTVSS
VL: DIQMTQSPSSLSASVGDRVTITCKASQDINKYIAWYQHKPGKAPKLLIYYASNLQPGVPSRFSGSGSGRDFTFTISSLQPEDIATYYCLQYDNLLTFGAGTKLELK
notes: as for B2

These binders were tested against full length CD33 on cells (human, UniProt P20138 18-364) (assay: cell-based or functional assay).
Chain of full length CD33 on cells (P20138 18-364): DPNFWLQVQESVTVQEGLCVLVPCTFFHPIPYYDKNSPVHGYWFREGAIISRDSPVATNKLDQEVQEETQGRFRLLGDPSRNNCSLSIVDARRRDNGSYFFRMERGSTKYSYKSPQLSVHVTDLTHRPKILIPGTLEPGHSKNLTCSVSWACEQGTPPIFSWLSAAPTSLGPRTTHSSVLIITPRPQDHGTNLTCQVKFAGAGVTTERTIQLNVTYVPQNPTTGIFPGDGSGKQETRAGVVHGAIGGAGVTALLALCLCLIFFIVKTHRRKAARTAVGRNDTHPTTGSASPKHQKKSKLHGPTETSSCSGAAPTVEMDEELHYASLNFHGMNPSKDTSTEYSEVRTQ
With B1 the “EC50 of T cell cytotoxicity, 4-hour 51Cr release assay, C1498-CD33 cells” value was 0.001 pM and the “EC50 of T cell cytotoxicity, 4-hour 51Cr release assay, THP1 cells” value was 0.2 pM.

What follows are binders tested against T1, CD33 (immobilized on CM5 sensor chip) (UniProt P20138 18-259, limits assumed) (assay: SPR (Biacore T-200), CD33 immobilized on CM5 chip).
T1 construct: also called CD33 antigen
T1 sequence (P20138 18-259 limits assumed): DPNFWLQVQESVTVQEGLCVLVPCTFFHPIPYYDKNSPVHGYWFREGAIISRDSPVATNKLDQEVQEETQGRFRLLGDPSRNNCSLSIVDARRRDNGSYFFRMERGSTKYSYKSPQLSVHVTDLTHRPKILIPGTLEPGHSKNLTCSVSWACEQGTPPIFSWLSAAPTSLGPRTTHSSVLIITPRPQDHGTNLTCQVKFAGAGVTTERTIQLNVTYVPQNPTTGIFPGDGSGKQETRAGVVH
In the case of B1, the Kd is reported as 128 pM, the koff is reported as 0.000117 s⁻¹ and the kon is reported as 914000 M⁻¹ s⁻¹. B2 was tested, and the Kd was 1650 pM, the koff was 0.00743 s⁻¹ and the kon was 4.5e+06 M⁻¹ s⁻¹. B3 showed a Kd of 955 pM, a koff of 0.00175 s⁻¹ and a kon of 1.84e+06 M⁻¹ s⁻¹. In the case of B4, the Kd is reported as 1210 pM, the koff is reported as 0.00597 s⁻¹ and the kon is reported as 4.95e+06 M⁻¹ s⁻¹. Binder B5 has a Kd of 198 pM, a koff of 0.00017 s⁻¹ and a kon of 861000 M⁻¹ s⁻¹.

From patent US20220259307A1 (Memorial Sloan Kettering, published 2022)
